Laboratory results taken from patent US20230357415A1 (AJOU UNIVERSITY INDUSTRY ACADEMIC COOPERATION FOUNDATION, published 2023).

Target: T1, sIL-5Rα antigen protein (Sinobio 10392-H08H) (Homo sapiens (Human), UniProt Q01344 21-342)
T1 construct: Bought protein immobilised in the indirect ELISAs; also called soluble IL-5Rα; CD125
T1 sequence: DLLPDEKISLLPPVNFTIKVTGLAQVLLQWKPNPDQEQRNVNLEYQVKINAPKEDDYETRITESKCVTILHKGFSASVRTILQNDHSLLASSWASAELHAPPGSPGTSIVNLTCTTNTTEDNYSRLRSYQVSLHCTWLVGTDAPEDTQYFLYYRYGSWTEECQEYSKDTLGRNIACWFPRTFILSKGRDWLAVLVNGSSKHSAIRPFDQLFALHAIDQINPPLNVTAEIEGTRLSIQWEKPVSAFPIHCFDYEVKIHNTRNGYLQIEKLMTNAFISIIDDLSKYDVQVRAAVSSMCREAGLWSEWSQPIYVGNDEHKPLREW
Experiment: indirect ELISA; plate-coated sIL-5Rα, antibody 100, 10, 1 nM, anti-human Fc-HRP, absorbance at 450 nm
Protocol: After discarding the solution and washing the same three times with 0.1% PBST, an anti-human Fc-HRP antibody (1:8000) as a secondary antibody was added in an amount of 25 μl/well and reacted at room temperature for 1 hour.

- binding result: binds
B1: 4R34.1.19-SL-5R65 (bispecific antibody, human IgG1, kappa)
light: QSVLTQPPSASGTPGQRVTISCSGSPLFPDSGSFNWYQQLPGTAPKLLIYADSHRPSGVPDRFSGSKSGTSASLAISGLRSEDEADYYCGTWDYSLSGYVLGGGTKLTVLGTVAAPDIQMTQSPSTLSASVGDRVTITCKASQNVGTAVAWYQQKPGKAPKLLIYWASTRHTGVPDRFSGSGSGTDFTLTISSLQPDDFATYYCQQFGRYPYTFGSGTKVEVKRTVAAPSVFIFPPSDEQLKSGTASVVCLLNNFYPREAKVQWKVDNALQSGNSQESVTEQDSKDSTYSLSSTLTLSKADYEKHKVYACEVTHQGLSSPVTKSFNRGEC
heavy: not shown
notes: The 4R34.1.19 variable regions are outermost and the 5R65 variable regions come second; also called 4R-SL-5R; DVD-IgG
